Laboratory results taken from patent US20250171562A1.

B1: NIgG4F5A1(G4S)3 (Fc fusion)
chain 1: DVQLQESGGGLVQPGGSLRLSCAASGSIFSIDIMGWYRQAPGKQRELVATMPEGNYINYADSVKGRLTLSRDKGKNTVYLQLNSLKPEDTAVYYCYGFGVREGRGNVYWGQGTQVTVSGGGGSGGGGSGGGGSGPPCPPCPAPEFLGGPSVFLFPPKPKDTLMISRTPEVTCVVVDVSQEDPEVQFNWYVDGVEVHNAKTKPREEQFNSTYRVVSVLTVLHQDWLNGKEYKCKVSNKGLPSSIEKTISKAKGQPREPQVYTLPPCQEEMTKNQVSLWCLVKGFYPSDIAVEWESNGQPENNYKTTPPVLDSDGSFFLYSRLTVDKSRWQEGNVFSCSVMHEALHNHYTQKSLSLSLGK
chain 2: EVQLLESGGGLVQPGGSLRLSCAASGFTFGNYDMAWVRQAPGKRPEWVSSIDTGGDITHYADSVKGRFTISRDNAKNTLYLQMNSLRPEDTAVYWCATDEEYALGPNEFDYYGQGTLVTVSSGGGGSGGGGSGGGGSGPPCPPCPAPEFLGGPSVFLFPPKPKDTLMISRTPEVTCVVVDVSQEDPEVQFNWYVDGVEVHNAKTKPREEQFNSTYRVVSVLTVLHQDWLNGKEYKCKVSNKGLPSSIEKTISKAKGQPREPQVCTLPPSQEEMTKNQVSLSCAVKGFYPSDIAVEWESNGQPENNYKTTPPVLDSDGSFFLVSRLTVDKSRWQEGNVFSCSVMHEALHNHYTQKSLSLSLGK
B2: CIgG4F5A1(RS) (Fc fusion)
chain 1: GPPCPPCPAPEFLGGPSVFLFPPKPKDTLMISRTPEVTCVVVDVSQEDPEVQFNWYVDGVEVHNAKTKPREEQFNSTYRVVSVLTVLHQDWLNGKEYKCKVSNKGLPSSIEKTISKAKGQPREPQVYTLPPCQEEMTKNQVSLWCLVKGFYPSDIAVEWESNGQPENNYKTTPPVLDSDGSFFLYSRLTVDKSRWQEGNVFSCSVMHEALHNHYTQKSLSLSLGKRSDVQLQESGGGLVQPGGSLRLSCAASGSIFSIDIMGWYRQAPGKQRELVATMPEGNYINYADSVKGRLTLSRDKGKNTVYLQLNSLKPEDTAVYYCYGFGVREGRGNVYWGQGTQVTVS
chain 2: GPPCPPCPAPEFLGGPSVFLFPPKPKDTLMISRTPEVTCVVVDVSQEDPEVQFNWYVDGVEVHNAKTKPREEQFNSTYRVVSVLTVLHQDWLNGKEYKCKVSNKGLPSSIEKTISKAKGQPREPQVCTLPPSQEEMTKNQVSLSCAVKGFYPSDIAVEWESNGQPENNYKTTPPVLDSDGSFFLVSRLTVDKSRWQEGNVFSCSVMHEALHNHYTQKSLSLSLGKRSEVQLLESGGGLVQPGGSLRLSCAASGFTFGNYDMAWVRQAPGKRPEWVSSIDTGGDITHYADSVKGRFTISRDNAKNTLYLQMNSLRPEDTAVYWCATDEEYALGPNEFDYYGQGTLVTVSS
B3: CIgG4F5A1(G4S)1 (Fc fusion)
chain 1: GPPCPPCPAPEFLGGPSVFLFPPKPKDTLMISRTPEVTCVVVDVSQEDPEVQFNWYVDGVEVHNAKTKPREEQFNSTYRVVSVLTVLHQDWLNGKEYKCKVSNKGLPSSIEKTISKAKGQPREPQVYTLPPCQEEMTKNQVSLWCLVKGFYPSDIAVEWESNGQPENNYKTTPPVLDSDGSFFLYSRLTVDKSRWQEGNVFSCSVMHEALHNHYTQKSLSLSLGKGGGGSDVQLQESGGGLVQPGGSLRLSCAASGSIFSIDIMGWYRQAPGKQRELVATMPEGNYINYADSVKGRLTLSRDKGKNTVYLQLNSLKPEDTAVYYCYGFGVREGRGNVYWGQGTQVTVS
chain 2: GPPCPPCPAPEFLGGPSVFLFPPKPKDTLMISRTPEVTCVVVDVSQEDPEVQFNWYVDGVEVHNAKTKPREEQFNSTYRVVSVLTVLHQDWLNGKEYKCKVSNKGLPSSIEKTISKAKGQPREPQVCTLPPSQEEMTKNQVSLSCAVKGFYPSDIAVEWESNGQPENNYKTTPPVLDSDGSFFLVSRLTVDKSRWQEGNVFSCSVMHEALHNHYTQKSLSLSLGKGGGGSEVQLLESGGGLVQPGGSLRLSCAASGFTFGNYDMAWVRQAPGKRPEWVSSIDTGGDITHYADSVKGRFTISRDNAKNTLYLQMNSLRPEDTAVYWCATDEEYALGPNEFDYYGQGTLVTVSS
B4: CIgG4F5A1(G4S)2 (Fc fusion)
chain 1: GPPCPPCPAPEFLGGPSVFLFPPKPKDTLMISRTPEVTCVVVDVSQEDPEVQFNWYVDGVEVHNAKTKPREEQFNSTYRVVSVLTVLHQDWLNGKEYKCKVSNKGLPSSIEKTISKAKGQPREPQVYTLPPCQEEMTKNQVSLWCLVKGFYPSDIAVEWESNGQPENNYKTTPPVLDSDGSFFLYSRLTVDKSRWQEGNVFSCSVMHEALHNHYTQKSLSLSLGKGGGGSGGGGSDVQLQESGGGLVQPGGSLRLSCAASGSIFSIDIMGWYRQAPGKQRELVATMPEGNYINYADSVKGRLTLSRDKGKNTVYLQLNSLKPEDTAVYYCYGFGVREGRGNVYWGQGTQVTVS
chain 2: GPPCPPCPAPEFLGGPSVFLFPPKPKDTLMISRTPEVTCVVVDVSQEDPEVQFNWYVDGVEVHNAKTKPREEQFNSTYRVVSVLTVLHQDWLNGKEYKCKVSNKGLPSSIEKTISKAKGQPREPQVCTLPPSQEEMTKNQVSLSCAVKGFYPSDIAVEWESNGQPENNYKTTPPVLDSDGSFFLVSRLTVDKSRWQEGNVFSCSVMHEALHNHYTQKSLSLSLGKGGGGSGGGGSEVQLLESGGGLVQPGGSLRLSCAASGFTFGNYDMAWVRQAPGKRPEWVSSIDTGGDITHYADSVKGRFTISRDNAKNTLYLQMNSLRPEDTAVYWCATDEEYALGPNEFDYYGQGTLVTVSS
B5: CIgG4F5A1(G4S)3 (Fc fusion)
chain 1: GPPCPPCPAPEFLGGPSVFLFPPKPKDTLMISRTPEVTCVVVDVSQEDPEVQFNWYVDGVEVHNAKTKPREEQFNSTYRVVSVLTVLHQDWLNGKEYKCKVSNKGLPSSIEKTISKAKGQPREPQVYTLPPCQEEMTKNQVSLWCLVKGFYPSDIAVEWESNGQPENNYKTTPPVLDSDGSFFLYSRLTVDKSRWQEGNVFSCSVMHEALHNHYTQKSLSLSLGKGGGGSGGGGSGGGGSDVQLQESGGGLVQPGGSLRLSCAASGSIFSIDIMGWYRQAPGKQRELVATMPEGNYINYADSVKGRLTLSRDKGKNTVYLQLNSLKPEDTAVYYCYGFGVREGRGNVYWGQGTQVTVS
chain 2: GPPCPPCPAPEFLGGPSVFLFPPKPKDTLMISRTPEVTCVVVDVSQEDPEVQFNWYVDGVEVHNAKTKPREEQFNSTYRVVSVLTVLHQDWLNGKEYKCKVSNKGLPSSIEKTISKAKGQPREPQVCTLPPSQEEMTKNQVSLSCAVKGFYPSDIAVEWESNGQPENNYKTTPPVLDSDGSFFLVSRLTVDKSRWQEGNVFSCSVMHEALHNHYTQKSLSLSLGKGGGGSGGGGSGGGGSEVQLLESGGGLVQPGGSLRLSCAASGFTFGNYDMAWVRQAPGKRPEWVSSIDTGGDITHYADSVKGRFTISRDNAKNTLYLQMNSLRPEDTAVYWCATDEEYALGPNEFDYYGQGTLVTVSS
B6: NIgG4F6A1(RS) (Fc fusion)
chain 1: DVQLQESGGGLVQAGGSLRLSCAASGLTFGSYDMGWYRQAPGKQRELVGRIRNDGITYYADSVKGRFTMSRDNAKNTVYLQMNSLKPEDTAVYYCAADGTGLGHYDYWGQGTQVTVSRSGPPCPPCPAPEFLGGPSVFLFPPKPKDTLMISRTPEVTCVVVDVSQEDPEVQFNWYVDGVEVHNAKTKPREEQFNSTYRVVSVLTVLHQDWLNGKEYKCKVSNKGLPSSIEKTISKAKGQPREPQVYTLPPCQEEMTKNQVSLWCLVKGFYPSDIAVEWESNGQPENNYKTTPPVLDSDGSFFLYSRLTVDKSRWQEGNVFSCSVMHEALHNHYTQKSLSLSLGK
chain 2: EVQLLESGGGLVQPGGSLRLSCAASGFTFGNYDMAWVRQAPGKRPEWVSSIDTGGDITHYADSVKGRFTISRDNAKNTLYLQMNSLRPEDTAVYWCATDEEYALGPNEFDYYGQGTLVTVSSRSGPPCPPCPAPEFLGGPSVFLFPPKPKDTLMISRTPEVTCVVVDVSQEDPEVQFNWYVDGVEVHNAKTKPREEQFNSTYRVVSVLTVLHQDWLNGKEYKCKVSNKGLPSSIEKTISKAKGQPREPQVCTLPPSQEEMTKNQVSLSCAVKGFYPSDIAVEWESNGQPENNYKTTPPVLDSDGSFFLVSRLTVDKSRWQEGNVFSCSVMHEALHNHYTQKSLSLSLGK
B7: NIgG4F6A1(G4S)1 (Fc fusion)
chain 1: DVQLQESGGGLVQAGGSLRLSCAASGLTFGSYDMGWYRQAPGKQRELVGRIRNDGITYYADSVKGRFTMSRDNAKNTVYLQMNSLKPEDTAVYYCAADGTGLGHYDYWGQGTQVTVSGGGGSGPPCPPCPAPEFLGGPSVFLFPPKPKDTLMISRTPEVTCVVVDVSQEDPEVQFNWYVDGVEVHNAKTKPREEQFNSTYRVVSVLTVLHQDWLNGKEYKCKVSNKGLPSSIEKTISKAKGQPREPQVYTLPPCQEEMTKNQVSLWCLVKGFYPSDIAVEWESNGQPENNYKTTPPVLDSDGSFFLYSRLTVDKSRWQEGNVFSCSVMHEALHNHYTQKSLSLSLGK
chain 2: EVQLLESGGGLVQPGGSLRLSCAASGFTFGNYDMAWVRQAPGKRPEWVSSIDTGGDITHYADSVKGRFTISRDNAKNTLYLQMNSLRPEDTAVYWCATDEEYALGPNEFDYYGQGTLVTVSSGGGGSGPPCPPCPAPEFLGGPSVFLFPPKPKDTLMISRTPEVTCVVVDVSQEDPEVQFNWYVDGVEVHNAKTKPREEQFNSTYRVVSVLTVLHQDWLNGKEYKCKVSNKGLPSSIEKTISKAKGQPREPQVCTLPPSQEEMTKNQVSLSCAVKGFYPSDIAVEWESNGQPENNYKTTPPVLDSDGSFFLVSRLTVDKSRWQEGNVFSCSVMHEALHNHYTQKSLSLSLGK
B8: NIgG4F6A1(G4S)2 (Fc fusion)
chain 1: DVQLQESGGGLVQAGGSLRLSCAASGLTFGSYDMGWYRQAPGKQRELVGRIRNDGITYYADSVKGRFTMSRDNAKNTVYLQMNSLKPEDTAVYYCAADGTGLGHYDYWGQGTQVTVSGGGGSGGGGSGPPCPPCPAPEFLGGPSVFLFPPKPKDTLMISRTPEVTCVVVDVSQEDPEVQFNWYVDGVEVHNAKTKPREEQFNSTYRVVSVLTVLHQDWLNGKEYKCKVSNKGLPSSIEKTISKAKGQPREPQVYTLPPCQEEMTKNQVSLWCLVKGFYPSDIAVEWESNGQPENNYKTTPPVLDSDGSFFLYSRLTVDKSRWQEGNVFSCSVMHEALHNHYTQKSLSLSLGK
chain 2: EVQLLESGGGLVQPGGSLRLSCAASGFTFGNYDMAWVRQAPGKRPEWVSSIDTGGDITHYADSVKGRFTISRDNAKNTLYLQMNSLRPEDTAVYWCATDEEYALGPNEFDYYGQGTLVTVSSGGGGSGGGGSGPPCPPCPAPEFLGGPSVFLFPPKPKDTLMISRTPEVTCVVVDVSQEDPEVQFNWYVDGVEVHNAKTKPREEQFNSTYRVVSVLTVLHQDWLNGKEYKCKVSNKGLPSSIEKTISKAKGQPREPQVCTLPPSQEEMTKNQVSLSCAVKGFYPSDIAVEWESNGQPENNYKTTPPVLDSDGSFFLVSRLTVDKSRWQEGNVFSCSVMHEALHNHYTQKSLSLSLGK

Target: mixture of three Der p 2 specific recombinant human IgE clones H10, H12, P4E (human) (UniProt P01854)
Assay: RBL-SX38 IgE displacement, FACS

Sequence of mixture of three Der p 2 specific recombinant human IgE clones H10, H12, P4E (human) (P01854 other isoform, or with tags, fused parts or gaps): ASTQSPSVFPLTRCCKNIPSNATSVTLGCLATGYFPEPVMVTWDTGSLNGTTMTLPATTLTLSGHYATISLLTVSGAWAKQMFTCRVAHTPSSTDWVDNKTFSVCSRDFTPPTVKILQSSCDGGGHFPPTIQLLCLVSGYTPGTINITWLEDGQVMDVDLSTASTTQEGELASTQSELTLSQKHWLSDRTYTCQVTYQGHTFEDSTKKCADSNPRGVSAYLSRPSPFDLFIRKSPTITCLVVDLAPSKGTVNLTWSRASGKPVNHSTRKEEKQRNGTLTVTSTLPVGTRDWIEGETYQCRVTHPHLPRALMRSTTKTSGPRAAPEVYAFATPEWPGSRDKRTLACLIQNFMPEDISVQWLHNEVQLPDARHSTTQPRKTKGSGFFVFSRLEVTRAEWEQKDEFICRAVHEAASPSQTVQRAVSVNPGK

| Binder | EC50 | Max effect/effect 1 µM |
| --- | --- | --- |
| B1 | 34.8 nM | 48% |
| B2 | – | 0% |
| B3 | – | 19% |
| B4 | – | 25% |
| B5 | – | 27% |
| B6 | 3.2 nM | 26% |
| B7 | 2.2 nM | 68% |
| B8 | 2.3 nM | 76% |
